Patent US20210162029A1

Target: T1, KLK14 (UniProt Q9P0G3)
T1 sequence (looked up): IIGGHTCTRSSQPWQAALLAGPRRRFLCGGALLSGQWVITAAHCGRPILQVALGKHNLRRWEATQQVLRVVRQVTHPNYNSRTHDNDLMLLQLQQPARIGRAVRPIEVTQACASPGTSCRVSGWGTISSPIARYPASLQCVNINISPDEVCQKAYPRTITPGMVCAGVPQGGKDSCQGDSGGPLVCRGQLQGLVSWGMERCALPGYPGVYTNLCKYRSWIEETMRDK
Test: cell-based or functional assay

B1: LEKTI Domain 6 (protein)
chain: ESGKATSYAELCSEYRKLVRNGKLACTRENDPIQGPDGKVHGNTCSMCEVFFQAEEEEKKKKEGKSRN
% inhibition (mean) of KLK14 (30 nM) evoked FLIPR signal in TRPV1 cells; LEKTI D6 at 0.003 µM: -4% | % inhibition (mean) of KLK14 (30 nM) evoked FLIPR signal in TRPV1 cells; LEKTI D6 at 0.01 µM: 21.6% | % inhibition (mean) of KLK14 (30 nM) evoked FLIPR signal in TRPV1 cells; LEKTI D6 at 0.03 µM: -11.1% | % inhibition (mean) of KLK14 (30 nM) evoked FLIPR signal in TRPV1 cells; LEKTI D6 at 0.1 µM: 12.4% | % inhibition (mean) of KLK14 (30 nM) evoked FLIPR signal in TRPV1 cells; LEKTI D6 at 0.3 µM: 16.8% | % inhibition (mean) of KLK14 (30 nM) evoked FLIPR signal in TRPV1 cells; LEKTI D6 at 1 µM: 46.9% | % inhibition (mean) of KLK14 (30 nM) evoked FLIPR signal in TRPV1 cells; LEKTI D6 at 3 µM: 56.4% | % inhibition (mean) of KLK14 (30 nM) evoked FLIPR signal in TRPV1 cells; LEKTI D6 at 10 µM: 39.3% | % inhibition (mean) of KLK14 (30 nM) evoked FLIPR signal in TRPV4 cells; LEKTI D6 at 0.003 µM: -24.1% | % inhibition (mean) of KLK14 (30 nM) evoked FLIPR signal in TRPV4 cells; LEKTI D6 at 0.01 µM: -11% | % inhibition (mean) of KLK14 (30 nM) evoked FLIPR signal in TRPV4 cells; LEKTI D6 at 0.03 µM: 9.9% | % inhibition (mean) of KLK14 (30 nM) evoked FLIPR signal in TRPV4 cells; LEKTI D6 at 0.1 µM: 6.4% | % inhibition (mean) of KLK14 (30 nM) evoked FLIPR signal in TRPV4 cells; LEKTI D6 at 0.3 µM: 1.5% | % inhibition (mean) of KLK14 (30 nM) evoked FLIPR signal in TRPV4 cells; LEKTI D6 at 1 µM: 6.3% | % inhibition (mean) of KLK14 (30 nM) evoked FLIPR signal in TRPV4 cells; LEKTI D6 at 3 µM: 26.7% | % inhibition (mean) of KLK14 (30 nM) evoked FLIPR signal in TRPV4 cells; LEKTI D6 at 10 µM: 73%
